Non-standard residues stand in square brackets, D forms with d. sY = N[C@@H](Cc1ccc(OS(=O)(=O)O)cc1)C(=O)O

Sequences and labels used below:
B1: FLAG-hCXCR4 Ile4Ala/Ile6Ala (receptor, human, UniProt P61073 1-352, looked up)
chain: MEGASAYTSDNYTEEMGSGDYDSMKEPCFREENANFNKIFLPTIYSIIFLTGIVGNGLVILVMGYQKKLRSMTDKYRLHLSVADLLFVITLPFWAVDAVANWYFGNFLCKAVHVIYTVNLYSSVLILAFISLDRYLAIVHATNSQRPRKLLAEKVVYVGVWIPALLLTIPDFIFANVSEADDRYICDRFYPNDLWVVVFQFQHIMVGLILPGIVILSCYCIIISKLSHSKGHQKRKALKTTVILILAFFACWLPYYIGISIDSFILLEIIKQGCEFENTVHKWISITEALAFFHCCLNPILYAFLGAKFKTSAQHALTSVSRGSSLKILSKGKRGGHSSVSTESESSSFHSS
notes: whole, on cells; also called CXCR4 (I4A/I6A); not shown: FLAG tag
B2: 18SGDsYDSM24 (sTyr21 sulfopeptide) (peptide)
peptide: Ac-SGD[sY]DSM-NH2
SMILES: CSCC[C@H](NC(=O)[C@H](CO)NC(=O)[C@H](CC(=O)O)NC(=O)[C@H](Cc1ccc(OS(=O)(=O)O)cc1)NC(=O)[C@H](CC(=O)O)NC(=O)CNC(=O)[C@H](CO)NC(C)=O)C(N)=O
notes: Synthetic CXCR4 heptapeptide, residues 18-24; also called sulfated Tyr21 peptide
B3: 18SGDYDSM24 (Tyr21 peptide) (peptide)
peptide: Ac-SGDYDSM-NH2
notes: Synthetic CXCR4 heptapeptide, residues 18-24; also called unsulfated Tyr21 peptide
B4: CXCR41-38 (first 38 amino acids of CXCR4 preceded by a GlyMet dipeptide tag) (peptide)
peptide: GMMEGISIYTSDNYTEEMGSGDYDSMKEPAFREENANFNK
notes: range 1-38; Unsulfated recombinant peptide; also called CXCR4 N-terminal domain; CXCR1-38
B5: 4ISIsYTSD10 (sTyr7 sulfopeptide) (peptide)
peptide: Ac-ISI[sY]TSD-NH2
SMILES: CC[C@H](C)[C@H](NC(C)=O)C(=O)N[C@@H](CO)C(=O)N[C@H](C(=O)N[C@@H](Cc1ccc(OS(=O)(=O)O)cc1)C(=O)N[C@H](C(=O)N[C@@H](CO)C(=O)N[C@@H](CC(=O)O)C(N)=O)[C@@H](C)O)[C@@H](C)CC
notes: Synthetic CXCR4 heptapeptide, residues 4-10
B6: 4ISIYTSD10 (unsulfated Tyr7 peptide) (peptide)
peptide: Ac-ISIYTSD-NH2
notes: Synthetic CXCR4 heptapeptide, residues 4-10; also called CXCR4 Ile4-Asp10 heptapeptide
B7: 9SDNsYTEE15 (sTyr12 sulfopeptide) (peptide)
peptide: Ac-SDN[sY]TEE-NH2
SMILES: CC(=O)N[C@@H](CO)C(=O)N[C@@H](CC(=O)O)C(=O)N[C@@H](CC(N)=O)C(=O)N[C@@H](Cc1ccc(OS(=O)(=O)O)cc1)C(=O)N[C@H](C(=O)N[C@@H](CCC(=O)O)C(=O)N[C@@H](CCC(=O)O)C(N)=O)[C@@H](C)O
notes: Synthetic CXCR4 heptapeptide, residues 9-15
B8: 9SDNYTEE15 (Tyr12 peptide) (peptide)
peptide: Ac-SDNYTEE-NH2
notes: Synthetic CXCR4 heptapeptide, residues 9-15; also called unsulfated Tyr12 peptide

The target of one assay is T1, CXCL12WT (wild type CXCL12) (Homo sapiens (Human), UniProt P48061 22-89).
T1 construct: Recombinant, expressed and purified as previously described; [U-15N]-labelled in the NMR titrations; In monomer-dimer equilibrium; also called stromal cell-derived factor-1; SDF-1
T1 sequence (P48061 22-89 limits assumed): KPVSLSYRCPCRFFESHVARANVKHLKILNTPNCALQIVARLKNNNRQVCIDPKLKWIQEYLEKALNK
Kind of assay: 125I-CXCL12 radioligand displacement on CXCR4 II/AA (I4A/I6A); displaced tracer 125I-CXCL12. A general note: Loss of bound radioactivity is the signal in a displacement assay; it reports binding, not function.
On to B1, for which the binding result is reported as “binds”.

The target of the next assay is T2, CXCL122 (constitutively dimeric CXCL12 variant, L36C/A65C) (Homo sapiens (Human), UniProt P48061 22-89, disulfide-locked dimer through the engineered cysteines).
T2 construct: it is described as a variant of CXCL12 containing L36C/A65C mutations; also called CXCL12 locked dimer; LD
T2 sequence (P48061 22-89 L57C/A86C limits assumed): as the sequence (P48061 22-89 limits assumed) above, with L36C, A65C counted along it
Kind of assay: NMR 1H-15N HSQC titration of peptide into 15N-labelled chemokine, chemical shift perturbations fitted to a quadratic binding equation, 298 K. The procedure:
(§1) Each peptide was acetylated and amidated to create uncharged N- and C-termini, respectively. […] For each titration, the chemical shift change of every residue was used to identify the binding site and calculate the interaction affinity.
(§2) Total peptide additions differed for individual peptide titrations but ranged from 0-160 equivalencies. Spectra were processed using in-house scripts and chemical shift tracking was performed using CARA software. Combined ^1H/^15N chemical shift perturbations were calculated as $((5\ \Delta\delta_H)^2+(\Delta\deltaNH)^2)^{0.5}$, where δ_H and $\deltaNH$ are the amide proton and nitrogen chemical shifts, respectively. Equilibrium dissociation constants (K_d) were determined by non-linear fitting of the combined ^1H/^15N_H chemical shift perturbations as a function of peptide concentration to a single-site quadratic equation. For a given interaction, residues with the largest chemical shift perturbations were fitted individually. The resulting K_d values and their respective fitting errors were then averaged to produce the reported affinity and standard deviation for that interaction.
As for B2, the Kd was found to be 0.211 mM.
For the molecule B3, the Kd is 0.831 mM.
B4: the Kd came out at 0.0009 mM.

The target of the next assay is T1, CXCL12WT (wild type CXCL12). The description is as above. The procedure: as §1, §2
For the molecule B2, the Kd is 1.8 mM.
For the molecule B5, the Kd turned out to be 4.3 mM.
Consider B6, for which the Kd was found to be 1.9 mM.
Turning to B3, the Kd turned out to be 2.7 mM.

The target of another assay is T3, CXCL121 (constitutively monomeric CXCL12 variant, L55C/I58C) (Felis catus (Cat) (Felis silvestris …, UniProt O62657 22-89, engineered disulfide between Cys55 and Cys58)).
T3 construct: also called CXCL12 locked monomer; LM
T3 sequence (O62657 22-89 L76C/I79C limits assumed): as the sequence (P48061 22-89 limits assumed) above, with L55C, I58C counted along it
Described as above. The procedure:
as §1, §2
On to B2, for which the Kd worked out at 1.6 mM.
As to B5, the Kd turned out to be 6.1 mM.
Regarding B7, the Kd stood at 1.8 mM.
The same measure, in the same setting: next, B8: 2.7 mM; B6: 1.1 mM; B3: 1.5 mM.
As for B4, the Kd was determined as 0.0035 mM.

The target in another assay is T2, CXCL122 (constitutively dimeric CXCL12 …). Kind of assay: NMR titrations. As to the method: as §1, §2
As for B2, the “fold stronger binding than the unsulfated variant” value stood at 4 fold and the “fold stronger binding than to CXCL12WT or CXCL121” value amounted to 20 fold.

Another assay addresses T1, CXCL12WT (wild type CXCL12). The assay is described as follows: NMR titrations. The procedure: as §1, §2
For B6, the “fold higher affinity than the sTyr7 sulfopeptide” value was 2 fold.

In a further assay the target is T3, CXCL121 (constitutively monomeric …). The assay is described as follows: NMR titrations (Table 1). As to the method:
as §1, §2
With B6, the “fold stronger binding than the sTyr7 sulfopeptide” value is around 5 fold.

The next assay has as its target T2, CXCL122 (constitutively dimeric CXCL12 …). Kind of assay: ΔG = -RT ln Kd at 298 K from the NMR titration; non-specific binding to sY21 position. The procedure: as §1, §2
Take B5: the “ΔG” value was -4.65 kcal/mol.
Regarding B7, the “ΔG” value was -4.87 kcal/mol.
Same read-out and setting: next, B6: -4.6 kcal/mol.

For the next assay the target is unchanged. The assay is described as follows: ΔG = -RT ln Kd at 298 K from the NMR titration. The procedure: as §1, §2
Take B2: the “ΔG” value was -5.01 kcal/mol.
Same read-out and setting: then B8, with -4.74 kcal/mol; and B3, with -4.2 kcal/mol; and B4, with -8.24 kcal/mol.

A further assay addresses T1, CXCL12WT (wild type CXCL12). The assay is described as follows: ΔG = -RT ln Kd at 298 K from the NMR titration. As to the method: as §1, §2
Regarding B2, the “ΔG” value is -3.74 kcal/mol.
With B5, the “ΔG” value is -3.22 kcal/mol.
Same read-out and setting: then B7, with -4.09 kcal/mol.
Turning to B8, the “ΔG” value was -3.65 kcal/mol.
B6: the “ΔG” value is -3.71 kcal/mol.
For the molecule B3, the “ΔG” value is -3.5 kcal/mol.

A further assay concerns the target T3, CXCL121 (constitutively monomeric …). Kind of assay: ΔG = -RT ln Kd at 298 K from the NMR titration. As to the method:
as §1, §2
B2: the “ΔG” value was -3.81 kcal/mol.
For the molecule B5, the “ΔG” value is -3.02 kcal/mol.
On the same count and under the same terms, next, B7: -3.74 kcal/mol; B8: -3.5 kcal/mol; B6: -4.03 kcal/mol.
Consider B3, for which the “ΔG” value is -3.85 kcal/mol.
As for B4, the “ΔG” value was -7.43 kcal/mol.

For orientation: Kd means the equilibrium constant for the complex coming apart.

The values above are taken from US9908923 (MEDICAL COLLEGE OF WISCONSIN, dated 2018).
